Key:
[1] = A549 colony formation; settings: glycan lost; control: NSL3-3wt overexpression
[2] = NSL3 ubiquitination: Flag IP, anti-HA-ubiquitin WB, MG132; settings: glycan gained; control: NSL3 alone / untreated
[3] = Flag IP, WB, increasing OGA; settings: glycan lost; control: full-length NSL3wt
[4] = Flag IP, anti-HA-ubiquitin WB, increasing OGT1, UBE2S, MG132; settings: glycan lost; control: full-length NSL3wt
[5] = Flag-OGT1 IP, WB for NSL3, MOF, MCRS1, PHF20, NSL1, NSL2; settings: glycan lost; control: NSL3-3wt overexpression
[6] = Flag IP, anti-HA-ubiquitin WB, increasing OGT1, NSL3-3 truncation; settings: glycan lost; control: NSL3-3wt
[7] = WB of histone marks in 293T; settings: glycan lost; control: NSL3-3wt overexpression

For “NSL3 (nonspecific lethal protein 3): NSL3-3mt (T755A)”, the “other: colony suppression by NSL3-3 overexpression” value [1] was “abolishes”.

With “NSL3 (nonspecific lethal protein 3): OGT1 co-transfection” the degradation_or_half_life [2] was “increases”.

In the case of “NSL3 (nonspecific lethal protein 3): NSL3 T755A”, the “other: OGA-induced increase of NSL3 ubiquitination and UBE2S binding” value [3] is reported as “decreases” and the “other: OGT1-dependent decrease of NSL3 ubiquitination” value [4] is reported as “abolishes”.

With “NSL3 (nonspecific lethal protein 3): NSL3-3 T755A” the “other: loss of NSL complex subunits from Flag-OGT1 IP caused by NSL3-3” value [5] was “abolishes” and the degradation_or_half_life [6] was “changes”.

In the case of “NSL3 (nonspecific lethal protein 3): Flag-NSL3-3 T755A”, the “other: reduction of global H4 acetylation/H3K4me2 by NSL3-3 overexpression” value [7] is reported as “abolishes”.

For “NSL3 (nonspecific lethal protein 3): thiamet-G (TMG)”, the degradation_or_half_life [2] was “decreases”.

Source: article PMC6981688
